Literature values in PMC6826157.

What was measured:
Lys270 = Lys270 (UniProt position 270, AMSAKKDAMVP); experiment: kinetics; settings: V/K profile with the natural substrate L-tryptophan (free enzyme plus substrate)
Asp137 = Asp137 (UniProt position 137, SNYFFDTTQGH); experiment: kinetics; settings: V/K profile with the natural substrate L-tryptophan (free enzyme plus substrate)

Substance: Tryptophan indole-lyase (tryptophanase, TIL, EC 4.1.99.1) (Escherichia coli)
- pKa (Lys270): 7.6 ± 0.09
- pKa (Asp137): 6.0 ± 0.2
